Test results: paper PMC2757719, “EBNA1-Mediated Recruitment of a Histone H2B Deubiquitylating Complex to the Epstein-Barr Virus Latent Origin of DNA Replication” (PLoS Pathogens, 2009)

Assays:
[1] = molecular target: T1, USP7 (ubiquitin specific protease USP7), full length (human, UniProt Q93009 1-1102); assay: native gel or EMSA; EBNA1 fragment titrated, preincubated with 10 pmols USP7 or USP7-NTD 10 min at RT before 10 fmoles 32P-labelled DS site 1 DNA (or EBNA1-DNA preformed, then rising USP7, Figure 2C); 20 mM Tris pH 7.5, 200 mM NaCl, 1 µg salmon sperm DNA, 20 µl; 10% polyacrylamide gel; read-out: supershift of the EBNA1-DNA complex; conditions: both partners purified
T1 construct: Ubiquitin specific protease USP7 (HAUSP), human, full length; calculated mass printed as 130 Kd (135 kDa in the introduction); Monomeric by glycerol gradient sedimentation; also called HAUSP; Herpesvirus Associated Ubiquitin Specific Protease
T1 sequence (Q93009 whole entry, the tested form may be a part): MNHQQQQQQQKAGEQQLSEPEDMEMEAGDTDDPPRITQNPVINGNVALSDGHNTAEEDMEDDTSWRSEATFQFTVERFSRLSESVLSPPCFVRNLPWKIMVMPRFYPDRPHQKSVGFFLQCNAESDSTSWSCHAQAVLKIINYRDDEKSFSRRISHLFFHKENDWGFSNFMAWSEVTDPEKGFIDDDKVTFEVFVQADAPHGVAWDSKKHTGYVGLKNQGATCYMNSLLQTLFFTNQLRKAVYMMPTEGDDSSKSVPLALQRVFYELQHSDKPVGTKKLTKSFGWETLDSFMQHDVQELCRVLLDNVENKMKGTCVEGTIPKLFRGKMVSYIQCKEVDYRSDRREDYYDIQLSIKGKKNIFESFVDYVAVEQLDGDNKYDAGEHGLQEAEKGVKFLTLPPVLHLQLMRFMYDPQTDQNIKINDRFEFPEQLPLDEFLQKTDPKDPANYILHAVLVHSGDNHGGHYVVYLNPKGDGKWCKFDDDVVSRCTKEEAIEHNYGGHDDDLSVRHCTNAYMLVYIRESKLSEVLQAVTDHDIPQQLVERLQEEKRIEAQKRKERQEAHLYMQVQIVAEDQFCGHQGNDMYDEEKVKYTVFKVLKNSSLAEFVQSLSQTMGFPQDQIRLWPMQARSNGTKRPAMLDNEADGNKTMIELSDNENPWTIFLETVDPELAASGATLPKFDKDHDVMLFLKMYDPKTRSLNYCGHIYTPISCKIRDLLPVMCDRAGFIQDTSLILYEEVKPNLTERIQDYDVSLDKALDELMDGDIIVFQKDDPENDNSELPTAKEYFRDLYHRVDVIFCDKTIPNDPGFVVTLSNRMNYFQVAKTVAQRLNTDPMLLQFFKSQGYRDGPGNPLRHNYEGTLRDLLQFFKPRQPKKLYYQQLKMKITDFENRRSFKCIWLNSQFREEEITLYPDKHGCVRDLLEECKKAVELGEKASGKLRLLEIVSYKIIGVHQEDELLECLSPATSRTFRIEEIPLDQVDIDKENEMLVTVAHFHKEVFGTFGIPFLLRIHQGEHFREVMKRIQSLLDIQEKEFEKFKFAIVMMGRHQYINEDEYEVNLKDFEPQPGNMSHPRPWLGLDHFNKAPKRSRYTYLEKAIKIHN

[2] = molecular target: T1, USP7 (ubiquitin specific protease …); assay: co-sedimentation; glycerol gradient sedimentation: 50 µg USP7 and 25 µg GMPS, alone or mixed 1 h at room temperature, on 10%–20% glycerol gradients in 50 mM HEPES pH 7.9, 200 mM NaCl, 0.5 mM EDTA; SW41 34,000 rpm, 18 h, 4°C; markers aldolase 158 kDa, catalase 232 kDa; conditions: both partners purified
[3] = molecular target: the molecule itself; assay: as above

Row | Binder | binding result [1] | stoichiometry N [2] | stoichiometry N [3]
1 | EBNA1 truncation mutant 395–641 (domain or fragment, EBNA1 of Epstein-Barr virus, amino acids 395-641, amplified from pc3oriPEBNA1; also called EBNA1_(395–641); EBNA_(395–641); source: E. coli BL21 pLysS (pET15b), purified (Ni-NTA Agarose)) PRRPPPGRRPFFHPVGEADYFEYHQEGGPDGEPDVPPGAIEQGPADDPGEGPSTGPRGQGDGGRRKKGGWFGKHRGQGGSNPKFENIAEGLRALLARSHVERTTDEGTWVAGVFVYGGSKTSLYNLRRGTALAIPQCRLTPLSRLPFGMAPGPGPQPGPLRESIVCYFMVFLQTHIFAEVLKDAIKDLVMTKPAPTCNIRVTVCSFDDGVDLPPWFPPMVEGAAAEGDDGDDGDEGGDGDEGEEGQE | binds |  | 
2 | GMP synthetase (GMPS), His-tagged, recombinant (enzyme, human GMP synthetase, full-length cDNA (in pOTB7) amplified from the start codon to the stop codon and cloned into pFastBac HT B; mass printed as 77 Kda; also called guanosine 5′ monophosphate synthetase; His-tagged GMPS; source: High Five insect cells infected with baculovirus, purified (nickel resin)) not shown |  | 1 | 2
